Measurements taken from patent publication US8058228B2, “Leptin peptide antagonists” (Boston Biomedical Research Institute, priority 2004, dated 2011).

Target: T1, IL-1R tl (Homo sapiens, UniProt P14778)
T1 construct: endogenous in cells; host or cells: Ishikawa cells
T1 sequence (P14778 18-569): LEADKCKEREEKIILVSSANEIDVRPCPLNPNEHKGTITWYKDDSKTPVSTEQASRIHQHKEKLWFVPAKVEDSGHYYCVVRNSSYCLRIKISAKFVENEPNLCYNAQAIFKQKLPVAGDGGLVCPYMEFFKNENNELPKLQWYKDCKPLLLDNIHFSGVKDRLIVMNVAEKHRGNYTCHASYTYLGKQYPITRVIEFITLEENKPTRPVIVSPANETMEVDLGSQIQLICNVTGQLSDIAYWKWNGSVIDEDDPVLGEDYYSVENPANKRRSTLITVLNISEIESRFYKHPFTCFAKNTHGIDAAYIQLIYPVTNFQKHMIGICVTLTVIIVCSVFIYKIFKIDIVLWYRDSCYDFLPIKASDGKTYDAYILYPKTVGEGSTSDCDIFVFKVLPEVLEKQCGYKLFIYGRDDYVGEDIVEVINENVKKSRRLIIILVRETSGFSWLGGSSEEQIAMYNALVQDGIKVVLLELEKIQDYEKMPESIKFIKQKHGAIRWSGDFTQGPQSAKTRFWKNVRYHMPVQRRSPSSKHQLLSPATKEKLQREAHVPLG
Assay: IL-1β and IL-1R tl inhibitors: effects on LIF-R levels in Ishikawa cells (Western blot)
Type: cell-based
Method: Primary human endometrial cells (ESC and EEC) were cultured for 5-9 days in DMEM-F12 medium containing 5% fetal bovine serum (FBS), 5 μg/ml insulin, 1% amphopthericin B, 100 μg/ml streptomycin and 100 U/ml penicillin until they were 80% confluent. Two types of endometrial epithelial cell lines, HES (originally derived from a benign proliferative endometrium) and Ishikawa (human endometrial epithelial adenocarcinoma, ECACC 9832301, Wiltshire, England) were cultured under the same conditions described above. The cells were washed twice with 100 mM phosphate saline buffer (PBS), pH 7.2 and cultured for additional 2 days in the same medium but without FBS (basal medium). Cells were washed as described before and cultured in basal medium containing leptin (0, 3, 10 or 62 nM) or IL-1β (0.6, 3 and 10 nM). […]
Endometrial cells were washed with ice-cold PBS and lysed by homogenization on ice with lysis buffer A [[…] Tris, pH 7.4, containing 137 nM NaCl, 2 mM EDTA, 10% glycerol, 50 mM β-glycerophosphate, 1% Nonidet P-40 and a mixture of proteases and phosphatase inhibitors composed of 100 μM antipain, 0.1 mg/ml trypsin inhibitor, protease inhibitor cocktail 1:50 (Sigma), 50 nM NaF, 2 mM phenyl-methylsulfonyl fluoride, and 2 mM sodium orthovanadate]. […] Protein concentrations were determined using the Bradford protein assay (BioRad Laboratories Inc., Hercules, Calif.). […]

| LIF-R levels after IL-1β (IL-1β 3 and 10 nM, dose dependent) | effect on leptin-induced increase in LIF-R levels (IL-1Ra 1000 pg/ml or anti IL-1R tl antibody 20 μg/ml) | Substance |
| --- | --- | --- |
| increased the levels of LIF-R |  | IL-1β: human recombinant IL-1β (R&D Systems) |
|  | partially blocked | IL-1Ra: human recombinant IL-1 receptor antagonist (R&D Systems), inhibitor of IL-1R tl |
